We go through two sequences from publication PMC9993118.

Common to all, as to conditions: EMSA: Pierce EMSA kit conditions, 15 min, 7.5% polyacrylamide gel at room temperature; footprinting: 20 mM Tris-HCl pH 7.5, 80 mM NaCl, 1 mM EDTA, 100 ug/ml …
Background: In EMSA bound probe runs differently from free probe, usually more slowly.

Data set [1] addresses T1, Fis (Escherichia coli) (UniProt P0A6R3).
T1 sequence: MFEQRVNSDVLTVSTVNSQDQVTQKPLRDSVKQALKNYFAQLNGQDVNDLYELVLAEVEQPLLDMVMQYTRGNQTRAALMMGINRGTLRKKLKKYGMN
Briefly: EMSA.

Data set [2] concerns the target T2, Lrp (UniProt P0ACJ0).
T2 sequence: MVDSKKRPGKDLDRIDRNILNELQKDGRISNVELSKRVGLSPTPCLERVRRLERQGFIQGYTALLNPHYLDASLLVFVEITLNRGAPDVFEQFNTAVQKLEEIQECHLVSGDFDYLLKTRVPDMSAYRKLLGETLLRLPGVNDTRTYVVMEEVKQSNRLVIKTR
Briefly: EMSA.

The target of data set [3] is T2, Lrp. Briefly: competition EMSA.

For the sequence “CCCCCAAAAGATGAAACATTTGGGGCCATTTTGACTCATAGAGGAAAGCATCGCGGACAAACTTTTTCAGTTTATTTGTTGGCTTAATATTCTATTGTTATCTTTATTTATAGATGTTTATATTGCATGAGGTGG (double strand) [fimS 135 bp probe (wild type)]”, the binding result in data set [1], in data set [2] and in data set [3] was “binds” each time.

Take “CCACCTCATGCAATATAAACATCTATAAATAAAGATAACAATAGAATATTAAGGGGTTAGCTAAACTGAAAAAGTTTGTCCGCGATGCTTTCCTCTATGAGTCAAAATGGCCCCAAATGTTTCATCTTTTGGGGG (double strand) [fimS 135 bp probe, Fis site disrupted]”: the binding result in data set [1] and in data set [2] was “binds more weakly” throughout.
